One test addresses Sgo1_(1-130) (human) (UniProt Q5FBB7). Description: ITC. Background: ITC needs no label: the signal is the heat of the interaction.
Test [1] addresses Sgo1_(1-415) (human) (UniProt Q5FBB7). Nature of the test: ITC.
The target is the same in test [2]. Nature of the test: mass photometry.

Take “CPC_(ISB10-280) (INCENP_(1-58), Survivin full length and Borealin_(10-280)) (from UniProt Q9NQS7 1-58; O15392 1-142; Q53HL2 10-280) (complex)”: in the test with Sgo1_(1-130) (human), the Kd worked out at 57 nM. In the test with Sgo1_(1-415) (human) [1], this substance returned a Kd of 53 nM, a dH of -6.58 kcal/mol and a stoichiometry N of 1.
In the test with Sgo1_(1-130) (human), “CPC_(ISB10-221) (INCENP_(1-58), Survivin and Borealin_(10-221)) (from UniProt Q9NQS7 1-58; O15392 1-142; Q53HL2 10-221) (complex)” showed a Kd of 163 nM.
Regarding “Survivin (from UniProt O15392 1-142) (natural protein)”, the Kd in the test with Sgo1_(1-130) (human) was determined as 255 nM.
On to “Sgo1_(1-415) (from UniProt Q5FBB7 1-415) (domain or fragment)”, for which, in the test with Sgo1_(1-415) (human) [2], the stoichiometry N turned out to be 2.

By Kd is commonly meant the equilibrium constant for the complex coming apart. Low readings indicate higher affinity, high ones lower affinity. The term stoichiometry N denotes the number of molecules, sites or subunits per partner or assembly.
